Measurements as given in US20060222661A1.

Target: human CD81 (on Huh-7 cells and human primary hepatocytes) (human) (UniProt P60033)
Assay: cell-based or functional assay

Chain of human CD81 (on Huh-7 cells and human primary hepatocytes) (human) (P60033 whole entry): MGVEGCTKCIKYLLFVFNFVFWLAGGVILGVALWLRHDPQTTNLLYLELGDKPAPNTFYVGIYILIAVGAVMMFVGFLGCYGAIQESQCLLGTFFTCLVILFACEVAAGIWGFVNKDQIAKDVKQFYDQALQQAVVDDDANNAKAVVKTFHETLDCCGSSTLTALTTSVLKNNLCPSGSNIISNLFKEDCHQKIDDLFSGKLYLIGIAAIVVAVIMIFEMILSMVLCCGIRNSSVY

In the case of “JS-81 anti-CD81 monoclonal antibody (Pharmingen)”, the inhibition of infection by HCVpp of genotypes 1a and 1b, target cells pre-incubated with 30 µg/ml antibody was > 90%.
